In the nanobody polyreactivity screen of Harvey et al. (2022):

Assay: yeast display, Sf9 membrane polyspecificity reagent, FACS + sequencing; frameworks hold sequencing errors
Method in brief: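 A synthetic nanobody library was expressed on Saccharomyces cerevisiae BJ5465 by galactose induction for 36–48 hours. The library was stained for 1 hour at 4 °C with 10% biotinylated, detergent-solubilized Sf9 membrane reagent and enriched with streptavidin microbeads before FACS. Low and high (top ~1%) gates were set on anti-HA fluorescence for expression and streptavidin fluorescence for reagent binding, and each polyreactivity label reflects the gate of origin.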

| Sequence | polyreactivity (PSR sort gate) |
| --- | --- |
| QVQLVESGGGLVQAGGSLRLSCPASGRIFSFYALGGYRQAPGKERELVAAITYTDGSTYADSVKGRFTISRDNAKNTVYLQMNSLKPEDTAVYYCNAYRGWLLSREMDYWGQGTQVTVSS | low polyreactivity |
| QVQLVESGGGLVQAGGSLRISCAASGRTFRPYPMGWYRQAPGKDRELVAAIDSSGTSTYYADSVKGRFTISRDNAKNTVYLQMNSLKPEDTAVYYCAKAWPDHWYSRYDYWGQGTQVTVSS | low polyreactivity |
| QVQLVESGGGLVQAGGSLRLSCAASGRIFNRYAMGWYRQAPGKERELVAAINSSGGSTYYADSVKGRFTISRDNAKNTVYLQMNSLKPEDTAVYYCARVSYHYRTYDYWGQGTQVTVSS | high polyreactivity |
| QVQLVESGGGLVQAGGSLRLSCAASGRTFKENAMGWYRQAPGKERELVAVINSGGRTYYADSVKGRFTISRDNAKNTVYLQMNSLKPEDTAVYYCAAYSRSKESGYWGQGTQVTVSS | high polyreactivity |
| QVQLQESGGGQVQAGGSLRQSCAASGSIFQATYMGWDRQAPSKEREFVASITYGSITNYADSVKGRFTIGRDNAKDTWYLQMNSLKPEDAAVYYCAVDRHYIPAFHYWGQGTQVNVSS | low polyreactivity |
| QVQLVESGGGLVQAGGSLRLSCAASGFTFKYYAMGWYREAPGKERELVAAISLTGGSTYYADSVKGRFTISRDNAKNTVYFQMHSLIPEDTAVNYCNAVQGRQRGWEGPYGYWGQGTQVTVST | high polyreactivity |
| QVQLVESGGGLVQAGGSLRLSCAASGFTIGSYAMGWYRQAPGKEREFVAAIRRSGSSTYYADSVKGRFTISRDNAKNTVYLQMNSLKPEDTAVYYCAADVYRRLRRYRYYYWGQGTQVTVSS | low polyreactivity |
| QVQLVESGGCLVQAGGSLRLIWDASGSIFKRYAMGWYRQAPGKERELVAAISYSGGSTYYADSVKGRFTISRDNAKNTVYLQMNSLKPEDTAVYYCAKRSTSRGYDYWGQGTQVTLSS | high polyreactivity |
| QVQLVESGGGLVQAGGSLRLSCAASGNTLLSYAMGWYRQAPGKEWELVAAISIDGSTIYADSVKGRFTISRDNAKNTVYLQMNSLKPEDTAVYYCNADRTPFAEMDYWGQGTQVTVSS | low polyreactivity |
| QVQLRESGGGLVQAGGSLRLSCAASGRILYSYAMGWYRQAPGKERELVAAISWRGGPTYYADSVKGRFTISRDYAKNSVYLPMNSLKPEDTAVYYCAAEFYDLPWLYDYWGQGTQVTVSS | low polyreactivity |
| QGQLVESGGGLVQAGVSLRLSCAASGSIFGFYGMGWYRQAPGKERELVAAISYRGGNTYYADSVKGRFTSSRDNAKNTVFLQKNSLKPEDTAVYYCNSMWKHGAYRGAYGYWGQGTQVTVSS | high polyreactivity |
| QVQLVESGGGLVQAGGILRISCAASGSTFGWYTMGWYRQAPGKERELVAAITSRGTRTSYADSVTGRFTISRDIAKNTVYLQMNSLKTEDTAVYYCAARVFRGLGEYYWGQGTQVTVSS | high polyreactivity |
| QVQLVESGGGLVQAAGSLRLSCAASGTTFNRFFMGWYREAPGTERELVAANGGRTYYADSVKGRFTISRDNAKKSVYFQRNSLKPEDTAVYYCNARSYKHPYYRFDYWGQGTEVTVSS | high polyreactivity |
| QVQLVESGGGLVQAGGSLRLSCAASGSTFGWYAMVWYRQAPGKERELVAAIRNNDGRTYYADSVKGRFTISRDNAKNTVYLQMNSLKPEDTAVYYCNADYRSHYLYDYWGQGTQVTVSS | low polyreactivity |
| QVQLVESGGGLVQAGGSLRLSCAASGSIFNGNAMGWYRQAPGKERELVARITSGSSTYYADSVKGRFTISRDNAKNTVYLQMNSLKPEDTAVYYCAAVYGRYISYRWRSLYDYWGQGTQVTVSS | high polyreactivity |
| QVQLVESGGGLVQAGGSLRLSCAASGRIFYSYAMGWYRQAPGKERELVARISSGGSTNYADSVKGRFTISRDNAKNTVYLQMNSLKPEDTAVYYCAAATIWSGVHYGYWGQGTQVNVSS | low polyreactivity |
| QVQLVESGGGLVQAGGSLRLSCAASGRNFDYYTMGWYRQAPGKERELVARIRRSAGTTYYADSVKGRFTISRDNAKNPVYCQMNSLIPEDTAVYYCNVVPYFKYGYWGQGTQVTGSS | low polyreactivity |
| QVQLQESGGLVQAGGSLRLSCAASGSISGRNVMGWYRQSPGKEREFVASITDGSSNNYADSVKGRFTISRDNAKNTVYLQMNSLKPKDTAVYYCAAYAQRAKSFGYWGRGTQVTVSS | low polyreactivity |
| QVQLVESGGGLVQAGGSLRLSCAASGGIFGWYAMGWYRQAPGKERELVATITWRGGRTYYADSVKGRFTISRDNAKNTVYLQMNSLKPEDTAVYYCNAEWLWYDAGYRYTIRDSWGQGTQVTVSS | low polyreactivity |
| QVQLVESVGGLVQAGGSLRLSCAASGLTFNHYAMGWYRQAPGKEMELVAAISKSGSSTYYADSVKGRFTISRDNAKNTVYLQMNSLKPEDTAVYYCAARSWDPALYDYWGQGTQVTVSS | high polyreactivity |
| QVQLVESGGGLVQAGGSLRLSCAASGFIFVAYALGWYRPAPGKERELVAAITSSGVTTYYADSVKGRFTISRDNAKNTVYLQMTSLKQDDTAVYFCAAYRRRSPFDYWGQGTQVTVSS | high polyreactivity |
| QVQLVESGGGLVQAGGSLRLSCAASGRTFNAYTLGWYTQAPGTERELVAAITSSGGNTYNADSVKGRFTISRDNAKNTVYLQMNSLKPEETAVYYCNTVYLYGTHDYWGQGTQVTVSS | low polyreactivity |

| Sequence | polyreactivity (PSR sort gate) |
| --- | --- |
| QVQLVESGGGLVQAGGSLRLSCAASGSTFPYYAMGWYRQAPGKEREFVAAISSSGGSTYYADSVKWRFTISRDNAKNTVYLQMNSLKPEDTAVYYCAAQGARRNYYRYGTYTNRRYDYWGQGTQVTVSS | high polyreactivity |
| QVQLVESGGGLVQAGGSLRLSCAASGSTFYVNTMGWYRQAPGKERELVAAINWRGGSTYYADSVKWRFTISRDNAKNTVYLQMNSLKPEDTAVYYCAAYGFYRYVTAYIYDMDYWGQGTQVSVSS | low polyreactivity |
| QVHLVESGGGLVQAGGSLRLSCAASGSTFAGNTMGWYRQAPGKERELVASITSDGSTDYADSVKGRFTISRDNAKNTVYLQMNSLKPEDTAVYYCAIARGLSKMDSWGQGTQVTVSS | low polyreactivity |
| QVQLVESGGGLVQAGGSLRLSCAASGRIFQAYAMGWYRQAPGKERELVASISYRGGITYYADSVKGRFTISRDNAKNTVYLQMNSLKPEDTEVYYCAAGRKGSMYYWGQGTQVTVSW | high polyreactivity |
| QVQLVESGGGLVQAGGSLRLSCAASGSIFVNNAMGWYRQAPGKERELVAAISSRGGSTYYADSVKGRFTISRDNAKNTVYLQMNSLKPEDTAVYYCAAEYDGPYYSFYPEQRYYWGLGTQVTVSS | low polyreactivity |
| QVHLVESGGGLVQAGGSLRLSCASSGGIFVTYAMGWYRQAPGKERELVAAITSGDSTYYADSVKGRFTISRDNAKNTVYLQMNSLKPEDTAVYYCAVGSTDRVSAQGSYFTYDYWGQGTQVTVSS | low polyreactivity |
| QVQLVESGGGLVQAGGSLRLSCAASGSIFSSYAMGWYRQAPGKERELVAAITSGGSTYYADSVKGRFTISRDNAKNTVYLQLFSLKPEDTAVYYCAARQVRTSKLHMGYWGQGTQVTVSS | low polyreactivity |
| QVQLVESGGGLVQAGGSLRLSCAASGLTFTVNAMGWYRQAPGKERELVARIRNSGGRTYYADSVKGRFTISRDNAKNTVYLQMNSLKPEDTAVYYCAARRYYYQVGYDYWGQGTQVTVSS | high polyreactivity |
| QDQLVESGGGLVQAGGSLRLSCAASGFIFSQYAMGWYRHAPGKERELVAAISTSGGSTYYADSVKGRFTISRDNAKNTVYLQMNSLKPEDTAVYYCAAARITRGRRYDYWGQGTQVTVSS | high polyreactivity |
| QVQLVESGGRLVQAGGSLRLSCAASGRISWSYAMGWYRQAPGKERELVAAITSGGTTNYADSVKGRFTISRDNAKNTVYLQMNSLKPEDTAVYYCARDSYQLGLIRDPLEYDYWGQGTQVTVSS | low polyreactivity |
| PVQLVESGGGLVQAGGTLRLSCDATGITFKLNAMGWYRQAPGKERELVAAITSTGGSTYYADSVKGRFTISRDNAKNTVYLQMNSLNPEDTAVYYCAADRYSYIFYYYWSYDYWGQCTQVTVSS | high polyreactivity |
| QVQLVESGGGLVQAGGSLRLSCAASGRIFGGYTMGWYRQAHGKERELFAAITGSGGRTYYAYSVKGRFTISRDNAKNTVYLQMNSLKPEDTAVYYCNTVYRYRYYWGEGTQVTVSS | high polyreactivity |
| QVQLVESGGGLVQAGGSLRLSCAASGITFRWYAMGWYRQAPGKERELVAAISSSGGSTYYADSVKGRFTISRDNAKNTVYLQMNSLKPEVTAVYYCAAYTSYASDYWGQGTQVTVSS | high polyreactivity |
| QVQLVESGGGLVQAGGSLRLSCAASGFIFYHNAMGWYRQAPGKERELVAAISQSGGRTYYADSVKGRFTISRDNAKNTVYLQMNSLKPEDTAGYYCAKRTRVYHPTYDYWGQGTQVTVSS | high polyreactivity |
| QVQLVESGRGLVQAGGSLRLSCASSGSIKQNAMGWNRQAPGKETELVAAIDWDGSSTYYADSVKGRFTISRDNAKNTVYLQMNSLKPEDTAVYYCAKGWYRIKRNDYWGQGTQVTVSS | low polyreactivity |
| QVQLVESGGGLVQAGGSLRLSCAASGSIISINAMGWYRQAPGKERELVAAITWSGGSTYYADSVKGRVTISRDNAKNTVYLQMNSLKPEDTAVYYCAAAFWFQRGTGYYTSKFDYWGQGTQVTVSS | low polyreactivity |
| QVQLVESGGGLVQAGGSLRLSCAASGFIFSYYAMGWYRQAPGKERELVAAISISGGSTYYADSVKGRFTISRDNAKTTVYLQMNSLKPEDTAVYYCNKAPRYPYGGYDYWGQGTQVTVSS | low polyreactivity |
| QVQLVESGGGLFHAGGSLRLSCAASGSIFVRNVMGGYRQAPGKERELVAAISRSGVSTYYADSVKGRFTISRDNAKNTVSLQMNSLKPEDTAVSYCNAGWRRRNSTGYPWGYDYWGQGTQVTVSS | high polyreactivity |
| QVQLVESGGGIVQAGGSLRLSCAASGSTIRYYAMGWYRQAPGKERELVAAITYSGTRTYYADSVKGRFTISRDNAKTTVYLQMNSLKPEDTAVYYCNAVAKHRGVGIYTPYDYWGQGTQVTVSS | high polyreactivity |
| QVQLVESGGGLVQAGGSLRLSCAASGGTFPGYTMGWNRQAPGKERELVAAISGSGVSTYYADSVKGRFTISRDNAKNTVYLQMNSLKPEDTAVYYCARTYRSYSRYPFVRFDYWGQGTQVTVSS | high polyreactivity |
| QVQLVESGGGLVQAGGSLRLSCAASGSIFGRNAMGWYRQAPGKEREFVATITSRGGRTYYADSVKGRFTISRDNAKNTVYLQMNSLKPEYTAVYYCAADTYISTLKKYRLGDYWGQGTQVTVSS | low polyreactivity |
